Key:
Type in all cases: cell-based
Human whole blood = experiment: T cell count in whole blood at 24 hrs; settings: Fab-KD-Fab or BYbe 100 nM, Campath 10 μg/ml, in comparison with PBS- and NegCtrl BYbe-treated wells
Description: Human whole blood (Lithium heparin tubes) was taken from one donor (HTA #031219-06) at UCB Pharma Slough, UK according to approved ethical sample collection protocol.
In a Greiner 96-well non-binding microplate, Fab-X and Fab-Y combination 6294-X/4133-Y was added to PBS to give a Fab-KD-Fab concentration of 2000 nM. Similarly, stocks of 4133-6294 BYbe and NegCtrl BYbe were prepared in PBS at 2000 nM. The microplate was incubated for 1 hr at 37° C., 5% CO2. Following the incubation, Fab-KD-Fab and BYbe reagents were then serially diluted in PBS 1 in 5, seven times to produce to form an 8-point dose curve.
12.5 μl of Fab-KD-Fab or BYbe dilution was transferred into Corning Costar 96-well, cell culture treated, U-shaped-bottom microplate (cat no. 07-200-95) and 237.5 μl of whole blood added to each well. Final well concentrations of Fab-KD-Fab or BYbes were 100-0.00128 nM. Campath (clinical grade, diluted from 30 mg/ml stock to 1 mg/ml in PBS, lot number F1002H29) was used as a positive control at a final concentration of 10 μg/ml. Plates were sealed with a gas permeable adhesive seal and plate lids were replaced. […]
Following the incubation with the antibody cocktail, cells were washed twice as outlined above and buffer aspirated to leave the cells in 20 μl residual buffer. […] Cells were analysed live using the Intellicyt iQue Screener PLUS. […]

CCRF-SB = experiment: Apoptosis of cell lines: CCRF-SB; settings: 21 hrs
From the text: (§1) The following cell lines representing various leukaemia's and lymphoma's, as classified by ATCC (www.atcc.org/), were used: Jurkat—acute T-cell leukaemia; CCRF-SB—B-cell acute lymphoblastic leukaemia; MC116—B-cell undifferentiated lymphoma; Raji, Ramos—Burkitt lymphoma (rare form of B-cell non-Hodgkin lymphoma); SU-DHL-4, SU-DHL-5, SU-DHL-8, NU-DUL-1, OCI-Ly3—Diffuse large B-cell lymphoma; THP-1—acute monocytic leukaemia; and Dakiki—B cell nasopharyngeal carcinoma.
(§2) Prior to an assay being performed, 1 vial of each of the above cell lines was thawed in a 37° C. water bath and then added to 20 ml complete media (RPMI 1640+2 mM GlutaMAX+1% Pen/Strep, all previous supplied by Invitrogen, +10% Fetal Bovine Serum (FBS), Sigma Aldrich). Cells were spun (500 g, 5 min, at RT) and re-suspended in 20 ml complete media to wash and spun again. Cells were resuspended in 10 ml complete media and then counted using a ChemoMetec NucleoCounter NC-3000. 6×10^6 cells of each cell line were spun (500 g, 5 min, at RT) and re-suspended in 4.8 ml complete media. 1×10^5 cells in 80 μl were then added to each well of a Corning Costar 96-well, cell culture treated, U-shaped-bottom microplate (cat no. 07-200-95). The plate was rested in a 37° C., 5% CO2 incubator for 2 hrs
(§3) Stocks of 4133-6294 BYbe and NegCtrl BYbe at 2500 nM in complete media were prepared. In a Greiner 96-well non-binding microplate, both reagents were serially diluted in complete media 1 in 5, seven times to produce to form an 8-point dose curve. […] (final well concentrations 500-0.0064 nM) was added to the cells. Each concentration was produced in triplicate. Camptothecin (cat no. C9911-100MG, Sigma Aldrich) and Staurosporine (cat no. 56942-200UL, Sigma Aldrich) were added as positive controls of apoptosis. Both were diluted in complete media and added to the well to produce a final concentration of 5 μM. Additional positive controls included anti-thymocyte globulin (ATG, indicated by FDA for use in conditioning regimens), Rituximab (anti-CD20, indicated by FDA for Non-Hodgkin Lymphoma and Chronic Lymphocytic Leukaemia) and Campath (anti-CD52, indicated by FDA for B-cell Chronic Lymphocytic Leukaemia). Anti-thymocyte globulin, Rituximab and Campath were added to the wells to produce final concentrations of 200 μg/ml, 500 nM and 200 μg/ml, respectively. […]
(§4) Following the incubation, the plates were spun at 500 g, 5 min, RT, the buffer was aspirated with a BioTek ELx405 microplate washer, and the cells were re-suspended in FACS buffer (PBS+1% bovine serum albumin (BSA)+0.1% NaN3+2 mM EDTA, Sigma Aldrich) to wash and then re-spun and buffer was aspirated to leave the cells in 20 μl residual media. […] Cells were analysed using the Bio-Rad ZE5 Cell Analyzer. […]

NU-DUL-1 = experiment: Apoptosis of cell lines: NU-DUL-1; settings: NU-DUL-1, 21 hrs
From the text: as §1, §2, §3, §4

## Campath: anti-CD52, clinical grade, indicated by FDA for B-cell Chronic Lymphocytic Leukaemia; positive control [reference compound]
Human whole blood
  reduction in T cell numbers: roughly 8 fold
CCRF-SB; 200 μg/ml
  Campath mean (%) cell reduction: 24.86%
NU-DUL-1; 200 μg/ml
  Campath mean (%) cell reduction: 67.49%

B1: 4133-6294 BYbe: anti-CD45 BYbe (Fab-scFv): 4133 Fab HC-G4S linker-6294 scFv heavy chain paired with 4133 light chain (antibody)
heavy: QEQLVESGGGLVQPEGSLTLTCTASGFSFSGNYYMCWVRQAPGKGLEWIGCLYTGSSGSTYYASWAKGRFTISKTSSTTVTLQMTSLTAADTATYFCARDLGYEIDGYGGLWGQGTLVTVSSGQPKAPSVFPLAPCCGDTPSSTVTLGCLVKGYLPEPVTVTWNSGTLTNGVRTFPSVRQSSGLYSLSSVVSVTSSSQPVTCNVAHPATNTKVDKTVAPSTCSKPGGGGSGGGGSEVQLVESGAELARPGASVKMSCKASGYTFTSYTMHWVKQRPGQCLEWIGYINPSSGYTEYNQKFKDKTTLTADKSSSTAYLQLSSLTSEDSAVYYCARVGDGFYPSWLAYWGQGTLVTVSSGGGGSGGGGSGGGGSGGGGSDIQMTQSPKFLLVSAGDRVTITCKASQSVRNDVAWYQQKPGQSPKLLIFYASKRYTGVPDRFTGSGYGTDFTFTISTVQAEDLAVYFCQQDYSSPTTFGCGTKLEIK
light: AQVLTQTPSPVSAVVGGTVSISCQASQSVYNNNNLSWYQQKPGQPPKLLIYDASKLASGVPSRFKGSGSGTQFTLTISGVQCDDAATYYCLGGYYSSGWYFAFGGGTKVVVKRTPVAPTVLIFPPAADQVATGTVTIVCVANKYFPDVTVTWEVDGTTQTTGIENSKTPQNSADCTYNLSSTLTLTSTQYNSHKEYTCKVTQGTTSVVQSFNRGDC
Human whole blood
  reduction in T cell numbers: 5 fold
CCRF-SB
  Bottom (%) level of % cell reduction: 13.95%
  Top (%) level of % cell reduction: 83.40%
NU-DUL-1
  Bottom (%) level of % cell reduction: 5.07%
  Top (%) level of % cell reduction: 44.87%

From US20230374148A1, “BINDING MOLECULES THAT MULTIMERISE CD45” (UCB BIOPHARMA SRL, priority 2020, published 2023)
